This assay concerns H3K4me peptides / ING4 PHD finger. As to the kind of experiment: Biotinylated histone peptide pull-down, Western analysis. The conditions noted are these: full-length vs PHD-deleted ING4. The assay is classed as binding.

B1: ING4ΔPHD: ING4 derivative lacking the PHD finger (aa 1–194) (protein)
chain: MAAGMYLEHYLDSIENLPFELQRNFQLMRDLDQRTEDLKAEIDKLATEYMSSARSLSSEEKLALLKQIQEAYGKCKEFGDDKVQLAMQTYEMVDKHIRRLDTDLARFEADLKEKQIESSDYDSSSSKGKKKGRTQKEKKAARARSKGKNSDEEAPKTAQKKLKLVRTSPEYGMPSVTFGSVHPSDVLDMPVDPN
modifications: left off: GST (inferred from the vector pGEX6P1), end not stated, state not stated
Turning to B1, the “recognition of methylated H3K4 peptides in pull-down” value was “does not”.

Source of the values: publication PMC2650391 (Molecular cell, 2009).
